Laboratory results taken from publication PMC10330758 (DNA repair, 2023).

Target: N-terminally his-tagged human DHX9 (human, UniProt Q08211 1-1270)
Assay: pull-down

N-terminally his-tagged human DHX9, sequence (Q08211 whole entry): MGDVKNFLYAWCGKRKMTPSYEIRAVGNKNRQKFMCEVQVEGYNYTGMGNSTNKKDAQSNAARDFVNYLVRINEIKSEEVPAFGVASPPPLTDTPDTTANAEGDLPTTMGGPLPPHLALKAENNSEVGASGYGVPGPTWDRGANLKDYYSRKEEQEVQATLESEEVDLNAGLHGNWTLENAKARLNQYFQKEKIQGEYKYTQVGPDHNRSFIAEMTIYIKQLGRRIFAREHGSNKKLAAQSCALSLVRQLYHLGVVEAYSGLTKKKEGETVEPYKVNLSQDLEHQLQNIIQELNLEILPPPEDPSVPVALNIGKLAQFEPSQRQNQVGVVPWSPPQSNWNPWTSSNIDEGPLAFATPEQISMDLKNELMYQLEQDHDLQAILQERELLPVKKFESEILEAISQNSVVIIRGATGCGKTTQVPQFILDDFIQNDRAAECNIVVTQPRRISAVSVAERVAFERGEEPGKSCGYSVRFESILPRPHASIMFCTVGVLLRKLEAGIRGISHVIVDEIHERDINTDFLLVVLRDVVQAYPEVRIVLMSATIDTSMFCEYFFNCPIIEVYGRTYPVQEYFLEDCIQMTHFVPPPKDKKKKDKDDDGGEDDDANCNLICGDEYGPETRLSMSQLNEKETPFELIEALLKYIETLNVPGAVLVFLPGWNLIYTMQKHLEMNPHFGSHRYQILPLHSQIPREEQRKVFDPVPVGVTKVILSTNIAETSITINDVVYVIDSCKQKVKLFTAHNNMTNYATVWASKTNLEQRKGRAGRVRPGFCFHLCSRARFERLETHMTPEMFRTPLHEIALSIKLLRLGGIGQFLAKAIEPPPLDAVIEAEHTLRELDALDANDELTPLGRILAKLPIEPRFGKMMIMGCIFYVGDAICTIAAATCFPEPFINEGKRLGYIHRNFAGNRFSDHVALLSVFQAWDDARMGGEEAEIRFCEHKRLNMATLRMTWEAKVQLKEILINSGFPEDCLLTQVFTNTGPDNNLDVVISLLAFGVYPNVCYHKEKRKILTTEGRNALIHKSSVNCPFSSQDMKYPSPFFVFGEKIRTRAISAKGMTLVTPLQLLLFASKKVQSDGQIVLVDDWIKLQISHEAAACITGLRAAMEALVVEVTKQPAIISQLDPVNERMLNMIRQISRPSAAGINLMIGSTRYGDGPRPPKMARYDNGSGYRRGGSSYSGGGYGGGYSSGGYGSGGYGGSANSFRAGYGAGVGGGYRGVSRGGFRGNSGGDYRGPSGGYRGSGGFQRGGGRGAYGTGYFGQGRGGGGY

- binding result: binds
B1: Un-tagged p125 subunit of Pol δ (enzyme, human, UniProt P28340 1-1107, looked up)
chain: MDGKRRPGPGPGVPPKRARGGLWDDDDAPRPSQFEEDLALMEEMEAEHRLQEQEEEELQSVLEGVADGQVPPSAIDPRWLRPTPPALDPQTEPLIFQQLEIDHYVGPAQPVPGGPPPSRGSVPVLRAFGVTDEGFSVCCHIHGFAPYFYTPAPPGFGPEHMGDLQRELNLAISRDSRGGRELTGPAVLAVELCSRESMFGYHGHGPSPFLRITVALPRLVAPARRLLEQGIRVAGLGTPSFAPYEANVDFEIRFMVDTDIVGCNWLELPAGKYALRLKEKATQCQLEADVLWSDVVSHPPEGPWQRIAPLRVLSFDIECAGRKGIFPEPERDPVIQICSLGLRWGEPEPFLRLALTLRPCAPILGAKVQSYEKEEDLLQAWSTFIRIMDPDVITGYNIQNFDLPYLISRAQTLKVQTFPFLGRVAGLCSNIRDSSFQSKQTGRRDTKVVSMVGRVQMDMLQVLLREYKLRSYTLNAVSFHFLGEQKEDVQHSIITDLQNGNDQTRRRLAVYCLKDAYLPLRLLERLMVLVNAVEMARVTGVPLSYLLSRGQQVKVVSQLLRQAMHEGLLMPVVKSEGGEDYTGATVIEPLKGYYDVPIATLDFSSLYPSIMMAHNLCYTTLLRPGTAQKLGLTEDQFIRTPTGDEFVKTSVRKGLLPQILENLLSARKRAKAELAKETDPLRRQVLDGRQLALKVSANSVYGFTGAQVGKLPCLEISQSVTGFGRQMIEKTKQLVESKYTVENGYSTSAKVVYGDTDSVMCRFGVSSVAEAMALGREAADWVSGHFPSPIRLEFEKVYFPYLLISKKRYAGLLFSSRPDAHDRMDCKGLEAVRRDNCPLVANLVTASLRRLLIDRDPEGAVAHAQDVISDLLCNRIDISQLVITKELTRAASDYAGKQAHVELAERMRKRDPGSAPSLGDRVPYVIISAAKGVAAYMKSEDPLFVLEHSLPIDTQYYLEQQLAKPLLRIFEPILGEGRAEAVLLRGDHTRCKTVLTGKVGGLLAFAKRRNCCIGCRTVLSHQGAVCEFCQPRESELYQKEVSHLNALEERFSRLWTQCQRCQGSLHEDVICTSRDCPIFYMRKKVRKDLEDQEQLLRRFGPPGPEAW
